This note sets out measurements from US20040166544A1.

For orientation: koff means the rate constant with which the complex falls apart. A high value points to fast dissociation. The kon is a measure of how fast the partners come together. Read a low kon as slow association. In general, IC50 refers to the concentration that inhibits the measured activity by half. A higher IC50 goes with a need for much substance.

In assay [1] the target is c-Met (endogenous, on human cell lines 184B5, HCT-116, DU-145 and NCI H441) (human) (UniProt P08581). The experiment in a line: cell-based or functional assay.
For assay [2], the target named is c-Met/Fc Chimera (R&D Systems, catalog # 358-MT-100) (human) (UniProt P08581). The assay is described as follows: SPR (BIAcore), c-Met-Fc captured on protein A CM5 chip, Fab as analyte, 1:1 Langmuir model. (Surface plasmon resonance follows binding to a sensor surface in real time, without labels.)
The target is the same in assay [3]. The assay is described as follows: competition ELISA: displacement of biotinylated HGF from plate-coated c-Met/Fc chimera, Fab, n = 2. Background: ELISA stands for enzyme-linked immunosorbent assay.
The target is the same in assay [4]. The experiment in a line: competition ELISA: displacement of biotinylated HGF from plate-coated c-Met/Fc chimera, IgG, n = 2.
For assay [5], the target named is biotinylated c-Met-Fc (R&D Systems, #358-MT-100/CF, 5.1 biotin per c-Met molecule) (human) (UniProt P08581). The experiment in a line: SPR (BIAcore), biotinylated c-Met-Fc captured on streptavidin chip, IgG as analyte, bivalent model.
Sequence of biotinylated c-Met-Fc (R&D Systems, #358-MT-100/CF, 5.1 biotin per c-Met molecule) (human) (P08581 25-932): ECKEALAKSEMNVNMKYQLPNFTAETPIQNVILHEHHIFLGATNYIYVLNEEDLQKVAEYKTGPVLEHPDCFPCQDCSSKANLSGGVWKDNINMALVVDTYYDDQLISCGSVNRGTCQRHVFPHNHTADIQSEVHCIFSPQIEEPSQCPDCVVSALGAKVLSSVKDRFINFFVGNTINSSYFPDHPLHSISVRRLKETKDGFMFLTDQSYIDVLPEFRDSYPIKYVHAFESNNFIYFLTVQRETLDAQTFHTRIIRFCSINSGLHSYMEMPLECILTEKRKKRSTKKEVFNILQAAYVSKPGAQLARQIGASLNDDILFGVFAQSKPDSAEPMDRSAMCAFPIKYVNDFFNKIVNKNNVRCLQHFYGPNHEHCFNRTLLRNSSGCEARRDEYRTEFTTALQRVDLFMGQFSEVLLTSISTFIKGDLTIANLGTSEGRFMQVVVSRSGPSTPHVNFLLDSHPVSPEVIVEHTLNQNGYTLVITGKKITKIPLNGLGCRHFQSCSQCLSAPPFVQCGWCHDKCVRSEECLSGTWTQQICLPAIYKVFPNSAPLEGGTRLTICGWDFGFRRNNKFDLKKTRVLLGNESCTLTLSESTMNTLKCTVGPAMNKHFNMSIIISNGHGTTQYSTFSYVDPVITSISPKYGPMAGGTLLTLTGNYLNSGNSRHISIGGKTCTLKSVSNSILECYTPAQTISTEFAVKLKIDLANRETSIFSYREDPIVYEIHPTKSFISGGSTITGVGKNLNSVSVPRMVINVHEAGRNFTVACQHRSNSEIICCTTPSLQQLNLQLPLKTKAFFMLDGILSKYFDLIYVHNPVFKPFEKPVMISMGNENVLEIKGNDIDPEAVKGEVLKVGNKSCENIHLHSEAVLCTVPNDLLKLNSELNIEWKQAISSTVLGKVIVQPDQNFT

Sequence of c-Met/Fc Chimera (R&D Systems, catalog # 358-MT-100) (human) (P08581 25-932, stated change not applied): as the sequence (P08581 25-932) above
Sequence of c-Met (endogenous, on human cell lines 184B5, HCT-116, DU-145 and NCI H441) (human) (P08581 25-1390): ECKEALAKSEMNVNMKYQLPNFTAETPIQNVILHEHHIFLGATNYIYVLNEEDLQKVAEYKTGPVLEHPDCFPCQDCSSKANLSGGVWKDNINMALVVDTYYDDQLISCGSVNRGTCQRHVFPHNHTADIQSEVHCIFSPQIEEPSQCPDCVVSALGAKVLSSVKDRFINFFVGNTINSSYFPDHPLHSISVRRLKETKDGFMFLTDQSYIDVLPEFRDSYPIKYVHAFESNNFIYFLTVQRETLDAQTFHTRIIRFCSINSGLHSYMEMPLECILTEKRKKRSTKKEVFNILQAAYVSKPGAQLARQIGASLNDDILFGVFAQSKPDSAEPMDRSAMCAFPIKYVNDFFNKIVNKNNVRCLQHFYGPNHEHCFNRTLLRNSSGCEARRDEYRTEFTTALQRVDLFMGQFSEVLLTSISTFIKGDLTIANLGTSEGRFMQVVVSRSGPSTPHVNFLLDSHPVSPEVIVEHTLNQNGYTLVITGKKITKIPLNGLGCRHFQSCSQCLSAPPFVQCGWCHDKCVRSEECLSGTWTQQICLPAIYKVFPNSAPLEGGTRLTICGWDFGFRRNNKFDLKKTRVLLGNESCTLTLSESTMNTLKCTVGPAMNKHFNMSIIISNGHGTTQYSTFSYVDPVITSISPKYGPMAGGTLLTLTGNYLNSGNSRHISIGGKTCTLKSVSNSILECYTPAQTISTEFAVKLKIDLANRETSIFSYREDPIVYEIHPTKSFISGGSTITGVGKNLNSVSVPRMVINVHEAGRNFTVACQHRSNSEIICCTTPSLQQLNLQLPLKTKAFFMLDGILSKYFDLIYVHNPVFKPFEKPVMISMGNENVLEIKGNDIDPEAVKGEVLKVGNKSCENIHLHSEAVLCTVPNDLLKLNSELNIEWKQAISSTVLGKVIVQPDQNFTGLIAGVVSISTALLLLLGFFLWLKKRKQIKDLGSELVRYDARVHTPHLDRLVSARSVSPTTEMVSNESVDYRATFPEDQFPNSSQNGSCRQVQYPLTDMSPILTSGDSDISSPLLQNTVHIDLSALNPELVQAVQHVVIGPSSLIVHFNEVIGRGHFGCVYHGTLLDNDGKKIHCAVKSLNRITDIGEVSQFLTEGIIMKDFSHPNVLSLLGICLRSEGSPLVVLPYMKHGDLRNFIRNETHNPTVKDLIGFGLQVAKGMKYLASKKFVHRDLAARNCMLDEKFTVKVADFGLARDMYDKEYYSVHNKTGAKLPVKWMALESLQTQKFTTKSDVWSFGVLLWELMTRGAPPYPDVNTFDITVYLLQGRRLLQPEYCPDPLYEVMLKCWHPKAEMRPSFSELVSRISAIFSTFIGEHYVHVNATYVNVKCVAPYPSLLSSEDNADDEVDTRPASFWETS

Take “HB94 (#HB-94, ATCC Hybridoma), IgG columns of Tables 9 and 10 (antibody)”: in assay [1], the scatter assay on DU-145 cells, mean object area, agonist (alone), 100 nM, IgG column; the smaller the number, the more scattering (mean object area) worked out at 365 and the scatter assay on DU-145 cells, mean object area, antagonist (w/30 pM HGF), 100 nM, IgG column; the smaller the number, the more scattering (mean object area) came out at 199.

In assay [1], “HB-94 (#HB-94, ATCC Hybridoma) converted into a Fab fragment, Fab isotype control” yielded a scatter assay on DU-145 cells, mean object area, agonist (alone), 100 nM Fab; the smaller the number, the more scattering (mean object area) of 592 and a scatter assay on DU-145 cells, mean object area, antagonist (w/30 pM HGF), 100 nM Fab; the smaller the number, the more scattering (mean object area) of 478.

In assay [1], “c-Met antibody 1A3.3.13 (#HB-11894, ATCC Hybridoma), Fab” had a scatter assay on DU-145 cells, mean object area, agonist (alone), 100 nM Fab; the smaller the number, the more scattering (mean object area) of 597 and a scatter assay on DU-145 cells, mean object area, antagonist (w/30 pM HGF), 100 nM Fab; the smaller the number, the more scattering (mean object area) of 400. Besides, in assay [2], the Kd was found to be 6.3 nM, the koff stood at 0.00313 s⁻¹ and the on-rate (kon) worked out at 497000 M⁻¹ s⁻¹. The substance further yielded an IC50 in assay [3] of 6.83 nM.

In assay [1], “c-Met antibody 1A3.3.13 (#HB-11894, ATCC Hybridoma), IgG” showed a scatter assay on DU-145 cells, mean object area, agonist (alone), 100 nM IgG; the smaller the number, the more scattering (mean object area) of 305 and a scatter assay on DU-145 cells, mean object area, antagonist (w/30 pM HGF), 100 nM IgG; the smaller the number, the more scattering (mean object area) of 254. Further, the half-maximal inhibitory concentration (IC50) in assay [4] turned out to be 0.5 nM. In assay [5], the Kd is 1.4 nM, the koff was 0.000289 s⁻¹ and the kon is 210000 M⁻¹ s⁻¹.

Take “c-Met antibody 5D5.11.6 (#HB-11895, ATCC Hybridoma), Fab”: in assay [1], the scatter assay on DU-145 cells, mean object area, agonist (alone), 100 nM Fab; the smaller the number, the more scattering (mean object area) came to 632 and the scatter assay on DU-145 cells, mean object area, antagonist (w/30 pM HGF), 100 nM Fab; the smaller the number, the more scattering (mean object area) came to 592. In assay [2], this substance came in with a Kd of 1 nM, a koff of 0.000129 s⁻¹ and a kon of 126000 M⁻¹ s⁻¹. The same substance yielded an IC50 in assay [3] of 9.72 nM.

In assay [1], “c-Met antibody 5D5.11.6 (#HB-11895, ATCC Hybridoma), IgG” showed a scatter assay on DU-145 cells, mean object area, agonist (alone), 100 nM IgG; the smaller the number, the more scattering (mean object area) of 239 and a scatter assay on DU-145 cells, mean object area, antagonist (w/30 pM HGF), 100 nM IgG; the smaller the number, the more scattering (mean object area) of 241. Moreover, in assay [5], the Kd came to 5.9 nM, the koff turned out to be 0.000406 s⁻¹ and the kon was 68800 M⁻¹ s⁻¹.

For “recombinant human HGF (rhHGF, R&D Systems) (from UniProt P14210 32-728) (ligand)”, in assay [1], the scatter assay on DU-145 cells, mean object area, 30 pM HGF alone, IgG series; the smaller the number, the more scattering (mean object area) stood at 324 and the scatter assay on DU-145 cells, mean object area, media alone with 30 pM HGF (no antibody or Fab), Fab series; the smaller the number, the more scattering (mean object area) turned out to be 352.
